# In patent US20070224125A1 (APPLIED RESEARCH SYSTEMS ARS HOLDING N V, published 2007):
# B1: CCL3/MIP-1alpha (ligand, UniProt P10147 24-92, looked up)
# chain: SLAADTPTACCFSYTSRQIPQNFIADYFETSSQCSKPGVIFLTKRSRQVCADPSEEWVQKYVSDLELSA
# notes: also called CCL/MIP-1alpha; 125I-MIP-1alpha
# B2: CCL5/RANTES (ligand, UniProt P13501 24-91, looked up)
# chain: SPYSSDTTPCCFAYIARPLPRAHIKEYFYTSGKCSNPAVVFVTRKNRQVCANPEKKWVREYINSLEMS
# Biological target: T1, Bovine Serum Albumin (BSA) (bovine, UniProt P02769 25-607)
# T1 construct: Negative control
# T1 sequence (P02769 25-607 limits assumed): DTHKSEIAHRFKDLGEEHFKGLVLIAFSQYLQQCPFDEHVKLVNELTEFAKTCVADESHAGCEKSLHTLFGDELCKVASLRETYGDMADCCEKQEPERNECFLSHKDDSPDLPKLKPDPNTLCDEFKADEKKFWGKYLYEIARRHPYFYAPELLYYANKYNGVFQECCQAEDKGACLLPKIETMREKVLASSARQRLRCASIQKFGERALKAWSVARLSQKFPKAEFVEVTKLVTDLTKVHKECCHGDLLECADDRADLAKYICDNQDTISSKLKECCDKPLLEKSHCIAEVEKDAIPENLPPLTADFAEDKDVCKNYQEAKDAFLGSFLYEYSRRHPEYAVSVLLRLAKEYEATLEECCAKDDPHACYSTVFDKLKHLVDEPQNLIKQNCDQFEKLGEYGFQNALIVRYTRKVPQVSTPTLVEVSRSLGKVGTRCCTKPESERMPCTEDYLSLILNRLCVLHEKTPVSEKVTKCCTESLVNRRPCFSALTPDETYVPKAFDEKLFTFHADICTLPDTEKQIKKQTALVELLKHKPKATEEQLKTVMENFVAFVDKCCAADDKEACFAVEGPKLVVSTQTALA
# Assay: proteins spotted on nitrocellulose filters, incubated with radiolabeled chemokine
binder,measurement,value
B1,binding result,no binding
B2,binding result,no binding
